Where two headings read alike, the source gives them in different places.
Assays:
[1] = biological target: T1, rGDH (recombinant glutamate dehydrogenase) (Clostridium difficile, UniProt P27346 SEQ:1-421); assay: pulldown; 20 nM DNA, rGDH beads; decreased; conditions: tags: C-terminal His6; expressed in E. coli; Pro-Lab Diagnostics
T1 sequence: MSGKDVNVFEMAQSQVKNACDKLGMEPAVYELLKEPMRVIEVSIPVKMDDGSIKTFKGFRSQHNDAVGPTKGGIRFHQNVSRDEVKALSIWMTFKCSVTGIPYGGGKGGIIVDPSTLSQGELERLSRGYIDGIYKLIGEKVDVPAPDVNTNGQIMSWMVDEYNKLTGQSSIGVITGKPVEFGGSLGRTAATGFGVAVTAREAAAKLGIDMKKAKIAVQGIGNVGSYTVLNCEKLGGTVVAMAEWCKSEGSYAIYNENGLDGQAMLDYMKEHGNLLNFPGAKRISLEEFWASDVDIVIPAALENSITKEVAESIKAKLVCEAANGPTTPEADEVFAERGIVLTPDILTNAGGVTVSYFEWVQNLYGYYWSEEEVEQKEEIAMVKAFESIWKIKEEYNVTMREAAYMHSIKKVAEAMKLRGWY

[2] = biological target: T1, rGDH (recombinant glutamate …); assay: pulldown; 20 nM DNA, rGDH beads; conditions: tags: C-terminal His6; expressed in E. coli; Pro-Lab Diagnostics
[3] = biological target: T1, rGDH (recombinant glutamate …); assay: pulldown; conditions: tags: C-terminal His6; expressed in E. coli; Pro-Lab Diagnostics
[4] = biological target: T1, rGDH (recombinant glutamate …); assay: pulldown; […]; PBS pH 7.6, room temperature; conditions: tags: C-terminal His6; expressed in E. coli; Pro-Lab Diagnostics
[5] = biological target: T2, thrombin (Homo sapiens, UniProt P00734;P00734 P00734:328-363,P00734:364-622); assay: EMSA
[6] = biological target: T1, rGDH (recombinant glutamate …); assay: EMSA; […]; 1x PBS, 150 mM NaCl, 0.02% Tween-20, pH 7.6; […]; conditions: tags: C-terminal His6; expressed in E. coli; Pro-Lab Diagnostics
[7] = biological target: T3, BSA (UniProt P02769 P02769:25-607); assay: EMSA; 10 nM protein; conditions: tags: Sigma
T3 sequence (P02769 25-607, one chain of several): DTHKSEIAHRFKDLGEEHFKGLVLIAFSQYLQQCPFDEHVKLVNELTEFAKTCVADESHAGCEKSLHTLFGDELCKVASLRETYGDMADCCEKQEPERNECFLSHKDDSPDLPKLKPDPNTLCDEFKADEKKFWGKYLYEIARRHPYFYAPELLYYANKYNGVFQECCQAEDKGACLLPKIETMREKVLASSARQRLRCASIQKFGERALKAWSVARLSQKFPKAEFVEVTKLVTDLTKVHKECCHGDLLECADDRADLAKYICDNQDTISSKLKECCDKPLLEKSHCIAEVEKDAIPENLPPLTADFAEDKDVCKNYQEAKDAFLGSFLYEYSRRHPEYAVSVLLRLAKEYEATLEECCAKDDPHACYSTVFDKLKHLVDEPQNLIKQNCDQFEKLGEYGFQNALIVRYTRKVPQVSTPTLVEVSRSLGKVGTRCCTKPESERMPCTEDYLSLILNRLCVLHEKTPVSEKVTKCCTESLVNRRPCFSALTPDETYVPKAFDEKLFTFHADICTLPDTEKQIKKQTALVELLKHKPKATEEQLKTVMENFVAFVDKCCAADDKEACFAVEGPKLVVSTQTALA
Protocol: The truncated aptamer, anti-GDH-T1, was then radioactively labeled at the 5′ end and tested for binding to the rGDH target by EMSA assays.^{39,40} A typical image of an EMSA result is shown in FIG. 3A. It was observed that the electrophoretic mobility of the protein-aptamer complex was typically less than that of the free aptamer. The fractional saturation of bound aptamer was calculated as a function of rGDH concentration (FIG. 3B). […] The specificity was also tested by EMSA. No obvious band was observed when using proteins such as BSA, thrombin and IgG (FIG. 8).
Binding reactions were performed in 20 μL of 1× binding buffer containing 3 nM 32P-labeled anti-GDH1-T1 aptamer and various concentrations of rGDH (0 to 1000 nM). After incubation for 30 min, the reaction mixtures were spiked with 6× loading buffer, and then loaded into the wells of a nondenaturing polyacrylamide gel (8%) at 4° C. Visualization of DNA bands was done using a Typhoon 9200 imager and the resulting bands were quantified with ImageQuant software.

[8] = biological target: TcdA (toxin A) (Clostridium difficile, UniProt P16154 SEQ:1-2710)
[9] = biological target: T2, thrombin
[10] = biological target: TcdB (toxin B) (Clostridium difficile, UniProt P18177 SEQ:2-2366)
Sequence of TcdB (toxin B) (P18177 2-2366): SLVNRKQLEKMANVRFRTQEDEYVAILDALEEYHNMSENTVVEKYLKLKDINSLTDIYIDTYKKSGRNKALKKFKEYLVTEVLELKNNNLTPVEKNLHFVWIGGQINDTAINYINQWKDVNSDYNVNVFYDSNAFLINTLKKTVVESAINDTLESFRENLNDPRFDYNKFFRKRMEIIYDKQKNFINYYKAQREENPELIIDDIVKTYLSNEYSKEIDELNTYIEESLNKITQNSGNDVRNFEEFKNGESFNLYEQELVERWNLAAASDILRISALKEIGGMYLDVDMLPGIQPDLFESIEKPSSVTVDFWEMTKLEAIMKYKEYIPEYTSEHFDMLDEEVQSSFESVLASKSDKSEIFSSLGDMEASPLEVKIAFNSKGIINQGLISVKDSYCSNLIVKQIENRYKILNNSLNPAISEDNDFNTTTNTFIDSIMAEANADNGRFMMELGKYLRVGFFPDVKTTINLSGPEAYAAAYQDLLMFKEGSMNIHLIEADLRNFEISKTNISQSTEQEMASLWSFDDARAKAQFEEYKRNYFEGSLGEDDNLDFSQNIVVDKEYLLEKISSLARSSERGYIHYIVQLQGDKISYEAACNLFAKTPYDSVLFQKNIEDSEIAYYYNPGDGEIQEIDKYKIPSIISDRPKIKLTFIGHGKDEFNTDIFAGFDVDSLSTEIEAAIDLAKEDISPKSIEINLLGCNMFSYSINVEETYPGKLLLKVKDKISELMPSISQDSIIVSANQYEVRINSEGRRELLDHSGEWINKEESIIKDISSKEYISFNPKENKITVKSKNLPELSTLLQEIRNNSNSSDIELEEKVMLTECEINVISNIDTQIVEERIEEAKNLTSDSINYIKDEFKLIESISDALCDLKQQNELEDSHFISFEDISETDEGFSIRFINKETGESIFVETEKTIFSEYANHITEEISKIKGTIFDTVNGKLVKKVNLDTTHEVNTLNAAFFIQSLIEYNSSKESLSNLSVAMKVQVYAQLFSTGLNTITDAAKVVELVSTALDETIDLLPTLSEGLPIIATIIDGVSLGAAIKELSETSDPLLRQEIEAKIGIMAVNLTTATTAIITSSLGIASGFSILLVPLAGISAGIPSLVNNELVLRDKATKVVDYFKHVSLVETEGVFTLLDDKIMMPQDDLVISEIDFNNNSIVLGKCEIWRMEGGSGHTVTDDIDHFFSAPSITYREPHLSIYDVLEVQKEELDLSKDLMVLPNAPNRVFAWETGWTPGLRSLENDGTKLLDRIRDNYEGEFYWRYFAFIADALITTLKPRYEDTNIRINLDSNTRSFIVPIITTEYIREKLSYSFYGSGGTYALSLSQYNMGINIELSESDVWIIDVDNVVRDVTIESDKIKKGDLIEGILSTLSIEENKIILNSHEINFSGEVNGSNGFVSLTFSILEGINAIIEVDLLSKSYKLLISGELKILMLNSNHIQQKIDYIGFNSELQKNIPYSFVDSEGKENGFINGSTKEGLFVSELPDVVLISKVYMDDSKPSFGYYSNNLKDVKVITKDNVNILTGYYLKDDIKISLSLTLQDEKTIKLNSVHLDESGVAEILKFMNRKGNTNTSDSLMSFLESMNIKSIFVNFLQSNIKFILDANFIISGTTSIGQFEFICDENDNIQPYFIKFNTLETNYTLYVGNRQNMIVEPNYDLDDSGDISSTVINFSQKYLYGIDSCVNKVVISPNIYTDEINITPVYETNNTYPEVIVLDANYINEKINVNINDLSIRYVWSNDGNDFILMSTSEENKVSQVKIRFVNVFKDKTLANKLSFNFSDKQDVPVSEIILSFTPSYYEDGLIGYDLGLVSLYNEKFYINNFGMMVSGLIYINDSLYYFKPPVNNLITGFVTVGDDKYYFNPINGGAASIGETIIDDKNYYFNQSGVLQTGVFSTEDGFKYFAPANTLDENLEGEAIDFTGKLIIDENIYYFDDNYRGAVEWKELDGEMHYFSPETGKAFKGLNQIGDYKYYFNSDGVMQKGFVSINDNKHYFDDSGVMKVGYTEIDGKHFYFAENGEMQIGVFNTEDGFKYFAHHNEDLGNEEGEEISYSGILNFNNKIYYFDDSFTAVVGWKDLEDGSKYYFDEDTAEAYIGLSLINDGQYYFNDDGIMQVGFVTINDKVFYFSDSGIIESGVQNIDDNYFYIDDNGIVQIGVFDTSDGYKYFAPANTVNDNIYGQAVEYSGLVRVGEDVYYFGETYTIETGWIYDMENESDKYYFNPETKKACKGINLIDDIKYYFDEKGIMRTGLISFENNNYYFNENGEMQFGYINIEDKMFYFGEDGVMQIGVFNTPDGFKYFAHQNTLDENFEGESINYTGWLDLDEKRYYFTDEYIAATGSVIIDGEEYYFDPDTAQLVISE

[11] = biological target: T3, BSA; assay: RGO fluorescence sensor, 300 nM protein, no significant response; conditions: tags: Sigma
Protocol: The detection limit (defined as 3σ/slope, with a being the standard deviation of the blank samples) of the sensor was determined to be 1 nM (FIG. 5A). The selectivity of the aptamer-graphene biosensing system was also evaluated by using non-target proteins (BSA, thrombin, IgG, TcdA and TcdB).
In a typical assay, 20 μL of 5× binding buffer (5×PBS, containing 750 mM NaCl and 0.1% Tween-20, pH 7.6), 2 μL of FAM-labeled (5′ end) aptamer probe (7 μM), 30 μL of RGO solution (100 μg/mL) and 48 μL of water were first mixed and incubated in a micro-centrifuge tube for 30 min. Then, 10 μL of 1% BSA was added to block the surface. After incubating for 20 min, 5 μL of nGDH with different dilutions was added to the mixture and time-dependent fluorescence emission measurements were performed at λₑₓ/λₑₘ=494/518 nm. The emission intensity obtained at a reaction time of 60 min was plotted against nGDH concentration to obtain a limit of detection. A similar experiment was carried out using non-target proteins (BSA, human thrombin, human IgG, TcdA and TcdB from C. difficile) to evaluate aptamer selectivity.

[12] = biological target: T1, rGDH (recombinant glutamate …); assay: pulldown; […]; 1x PBS, 150 mM NaCl, 0.02% Tween-20, pH 7.6, room temperature; conditions: tags: C-terminal His6; expressed in E. coli; Pro-Lab Diagnostics

B1: anti-G1-T3 (ssDNA)
DNA: AGGTATTTAGTGCCAAGCCATCTCAAACGACGTCTGAGTCGCACTGCTCCTG
B1: binds [1].

AGGTATTTAGTGCCAAGCCATCGTCGCACTGCTCCTG (ssDNA) [anti-G1-T8]: no binding [2].

TAGTGCCAAGCCATCTCAAACGACGTCTGAGTCGCACTG (ssDNA) [anti-G1-T7]: no binding [2].

AGGTATTTAGTGCCAAGCCATCTCAAACGACGTCTGAGTCGCACTGCT (ssDNA) [anti-G1-T4]: binds [3].

B2: anti-G3 (anti-GDH3) (ssDNA)
DNA: CAGGTCCATCGAGTGGTAGGATGCAGCGGACAGTGTGGGACCATCGCTGCGGATGTATGAATCGCACTGCTCCTGAACGTAC
For B2, the Kd [4] was 5.6 nM.

B3: anti-G1-T1 (ssDNA)
DNA: TAGGAGGAGGTATTTAGTGCCAAGCCATCTCAAACGACGTCTGAGTCGCACTGCTCCTG
For B3, the binding result [5] was “no binding”, the Kd [6] was 4.5 nM and the binding result [7] was “no binding”.

B4: FAM-anti-GDH1-T1 (ssDNA)
DNA: TAGGAGGAGGTATTTAGTGCCAAGCCATCTCAAACGACGTCTGAGTCGCACTGCTCCTG
B4: no binding [8]; no binding [9]; no binding [10]. B4: no binding [11].

B5: anti-G1 (anti-GDH1) (ssDNA)
DNA: CAGGTCCATCGAGTGGTAGGAGGAGGTATTTAGTGCCAAGCCATCTCAAACGACGTCTGAGTCGCACTGCTCCTGAACGTAC
In the case of B5, the Kd [12] is reported as 3.1 nM.

B6: anti-G7 (anti-GDH7) (ssDNA)
DNA: CAGGTCCATCGAGTGGTAGGACCCAACCCACGATGCGCAAGAGGAATGCAGCCTACCAGCATCGCACTGCTCCTGAACGTAC
Binder B6 has a Kd [4] of 4.6 nM.

AGCCATCTCAAACGACGTCTGAGTCGCA (ssDNA) [anti-G1-T6]: no binding [2].

From patent publication US20190071714, “[…] FOR CLOSTRIDIUM […] DETECTION” (McMaster University, published 2019)
